Source: the supplement of paper PMC12042874
± gives the uncertainty stated by the source.

test: amyloid nucleation score (Sup35N fusion, yeast selection) (log enrichment); library NNK2; higher = more nucleation; inactive = no reads after selection
Method in brief: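 In psi-negative yeast, Sup35N fusions carrying peptides of 20 random codons were induced with 100 μM copper sulfate for 24 hours. The cells then grew 7 days at 30°C on medium lacking adenine and uracil, and plasmid inserts from input and output were Illumina-sequenced, excluding sequences with under 100 input reads. Nucleation score is the DiMSum log enrichment of output over input reads, centred on the mode score of non-aggregating sequences.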

Question: With MLKQSGDSVAHCLGKTGSQM as the substance, how does the amyloid nucleation score read?
Answer: Its amyloid nucleation score is 0.371 ± 0.35.

Question: With INIRLFFHDFTRMGSELIGY as the substance, how does the amyloid nucleation score read?
Answer: The amyloid nucleation score was 0.318 ± 0.8.

Question: For FNLTICSLDVPTFL, which amyloid nucleation score is on record?
Answer: The amyloid nucleation score was -0.549 ± 1.

Question: With RSTTM as the substance, how does the amyloid nucleation score read?
Answer: The amyloid nucleation score was “inactive”.

Question: With NSRLRRVYAGSARGAWTYRR as the substance, how does the amyloid nucleation score read?
Answer: The amyloid nucleation score was 1.14 ± 0.38.

Question: For NTCMLRARVSVMQNEE, which amyloid nucleation score is on record?
Answer: Its amyloid nucleation score is 0.071 ± 0.35.

Question: For MGSFKC, which amyloid nucleation score is on record?
Answer: The amyloid nucleation score was -1.32 ± 0.63.

Question: With FGKVRESCCLLAY as the substance, how does the amyloid nucleation score read?
Answer: Its amyloid nucleation score is 0.489 ± 0.3.

Question: With VYAYRTEFQRW as the substance, how does the amyloid nucleation score read?
Answer: Its amyloid nucleation score is 0.886 ± 0.47.

Question: For WDNDQHIQRNLY, which amyloid nucleation score is on record?
Answer: Its amyloid nucleation score is “inactive”.

Question: Which amyloid nucleation score does the source give for LNYRCAWWMLATMMLKRLSC here?
Answer: Its amyloid nucleation score is 2.15 ± 0.31.

Question: With YRDVQNN as the substance, how does the amyloid nucleation score read?
Answer: The amyloid nucleation score was “inactive”.

Question: For YRYAASVPKCNTGSRDVAQT, which amyloid nucleation score is on record?
Answer: The amyloid nucleation score was 0.942 ± 0.35.

Question: With LKQDKGITGEVVGVRILGS as the substance, how does the amyloid nucleation score read?
Answer: Its amyloid nucleation score is 0.22 ± 0.32.

Question: For RSHAT, which amyloid nucleation score is on record?
Answer: Its amyloid nucleation score is 0.579 ± 0.33.

Question: With TVNFYKRWSDCQLMSFIVRV as the substance, how does the amyloid nucleation score read?
Answer: The amyloid nucleation score was “inactive”.

Question: For DHRILILLTPQFSYDIWTVH, which amyloid nucleation score is on record?
Answer: Its amyloid nucleation score is “inactive”.

Question: For QWGSMVSCRCYRPPTEGPGW, which amyloid nucleation score is on record?
Answer: Its amyloid nucleation score is -0.605 ± 0.76.

Question: Which amyloid nucleation score does the source give for IAFYMLSWGMMLV here?
Answer: Its amyloid nucleation score is -0.074 ± 0.8.

Question: Which amyloid nucleation score does the source give for ECGPWKFDRIERDMNAVVER here?
Answer: The amyloid nucleation score was 2.46 ± 0.17.

Question: For VPVTGSNLPAVCKGHGVEYG, which amyloid nucleation score is on record?
Answer: Its amyloid nucleation score is -0.045 ± 0.41.

Question: For VQMGRPWTGALMVSYMIVNH, which amyloid nucleation score is on record?
Answer: The amyloid nucleation score was 6.18 ± 0.063.

Question: Which amyloid nucleation score does the source give for CTRRDFFGQTTAHVSVWCTG here?
Answer: Its amyloid nucleation score is 4.33 ± 0.081.

Question: Which amyloid nucleation score does the source give for GLWVSHEVCIGCVF here?
Answer: Its amyloid nucleation score is “inactive”.

Question: Which amyloid nucleation score does the source give for GSRYTEKIPGNRNRSRISL here?
Answer: Its amyloid nucleation score is -0.484 ± 0.35.

Question: For RAIDRRKVFARYVFWSFSWT, which amyloid nucleation score is on record?
Answer: The amyloid nucleation score was -0.141 ± 0.33.

Question: Which amyloid nucleation score does the source give for VISHRKPFE here?
Answer: The amyloid nucleation score was -0.283 ± 1.

Question: With VYCFNSRSNFHTLMLSSGYG as the substance, how does the amyloid nucleation score read?
Answer: The amyloid nucleation score was -0.594 ± 0.55.

Question: With PNVAIYIPTGYGLTVTPPAS as the substance, how does the amyloid nucleation score read?
Answer: The amyloid nucleation score was -1.02 ± 0.76.

Question: For LNLGILAFSKVKIGVFQFYE, which amyloid nucleation score is on record?
Answer: Its amyloid nucleation score is 6.834 ± 0.037.

Question: For CHHGRYIQRVGYRLVPSAFQ, which amyloid nucleation score is on record?
Answer: The amyloid nucleation score was 0.098 ± 1.

Question: With ISSSKRYVLKS as the substance, how does the amyloid nucleation score read?
Answer: Its amyloid nucleation score is 0.583 ± 0.39.

Question: For WRNLDLK, which amyloid nucleation score is on record?
Answer: The amyloid nucleation score was -0.562 ± 1.1.

Question: With TSYRVRGVGSSELCGSLKLR as the substance, how does the amyloid nucleation score read?
Answer: Its amyloid nucleation score is 0.627 ± 0.36.

Question: For FYMMFMNLCFIYYCVLMEGY, which amyloid nucleation score is on record?
Answer: Its amyloid nucleation score is “inactive”.

Question: With TRYIADRAVVSNRC as the substance, how does the amyloid nucleation score read?
Answer: The amyloid nucleation score was 0.81 ± 0.31.

Question: Which amyloid nucleation score does the source give for RISCSMVKRSYFRHVLVCEI here?
Answer: Its amyloid nucleation score is 1.74 ± 0.26.

Question: With TGLKIG as the substance, how does the amyloid nucleation score read?
Answer: The amyloid nucleation score was 0.038 ± 0.29.

Question: For CCILVSWFGIHSRCGVRCAR, which amyloid nucleation score is on record?
Answer: The amyloid nucleation score was 0.877 ± 0.3.

Question: Which amyloid nucleation score does the source give for MFGGQELCACLDKEGRTESG here?
Answer: Its amyloid nucleation score is 5.09 ± 0.08.

Question: With VGFISDNYYWYNPKVNGIWV as the substance, how does the amyloid nucleation score read?
Answer: The amyloid nucleation score was -0.834 ± 0.27.

Question: For KYVWSVEGKVAVAGVAMSCA, which amyloid nucleation score is on record?
Answer: Its amyloid nucleation score is 0.025 ± 1.1.

Question: For HKGVLEINSRVETLRSSAVN, which amyloid nucleation score is on record?
Answer: Its amyloid nucleation score is -0.545 ± 0.63.

Question: For FFWYWYASYEHARTSYSIRV, which amyloid nucleation score is on record?
Answer: The amyloid nucleation score was “inactive”.

Question: Which amyloid nucleation score does the source give for SKVSKGLHST here?
Answer: The amyloid nucleation score was “inactive”.

Question: Which amyloid nucleation score does the source give for QFRPLDCCLLNFDDSRIYCL here?
Answer: The amyloid nucleation score was 4.88 ± 0.074.

Question: For FSDFGMSLRISAKVEWIAMG, which amyloid nucleation score is on record?
Answer: The amyloid nucleation score was -1.59 ± 0.78.

Question: Which amyloid nucleation score does the source give for LKLYPGIFIICVRTMDFVFW here?
Answer: The amyloid nucleation score was “inactive”.

Question: Which amyloid nucleation score does the source give for DKANRDQWHQAKSSVCFGGV here?
Answer: The amyloid nucleation score was 0.089 ± 0.56.

Question: Which amyloid nucleation score does the source give for LISWFWWENLKLCCSIFCFI here?
Answer: The amyloid nucleation score was 4.4 ± 0.051.

Question: Which amyloid nucleation score does the source give for VFAMDYDVCDNSTCHKGV here?
Answer: Its amyloid nucleation score is -0.057 ± 0.21.

Question: For IRFWSKSGFVQGCSIRISLS, which amyloid nucleation score is on record?
Answer: Its amyloid nucleation score is 0.02 ± 1.

Question: With GLLPFGISAMNLRFHQGVAR as the substance, how does the amyloid nucleation score read?
Answer: Its amyloid nucleation score is -0.359 ± 0.2.

Question: Which amyloid nucleation score does the source give for FFTLVVTVLPRRFYRFNYR here?
Answer: The amyloid nucleation score was 0.043 ± 1.

Question: For DFYMYSVVDLS, which amyloid nucleation score is on record?
Answer: The amyloid nucleation score was -0.767 ± 0.31.

Question: Which amyloid nucleation score does the source give for TFCEWMLWNTLCQVLSVPPY here?
Answer: Its amyloid nucleation score is 6.423 ± 0.045.

Question: With LSVLTNDSGLFKFGFIRCVW as the substance, how does the amyloid nucleation score read?
Answer: The amyloid nucleation score was -1.21 ± 0.75.

Question: With NVRSWYLDNLFLTFAVA as the substance, how does the amyloid nucleation score read?
Answer: Its amyloid nucleation score is 0.164 ± 0.63.

Question: For PGRRDSHVRAYQEGVVESVS, which amyloid nucleation score is on record?
Answer: Its amyloid nucleation score is 0.051 ± 0.49.

Question: With ICYKVLAMDLMLCMSGGVLV as the substance, how does the amyloid nucleation score read?
Answer: Its amyloid nucleation score is 2.1 ± 0.092.

Question: Which amyloid nucleation score does the source give for EKHWSFFTGMSVSHRLFRQN here?
Answer: The amyloid nucleation score was “inactive”.

Question: With DDGMCRRYCLGRKYTMGIEL as the substance, how does the amyloid nucleation score read?
Answer: The amyloid nucleation score was 1.78 ± 0.14.

Question: With SISLLMICCDL as the substance, how does the amyloid nucleation score read?
Answer: Its amyloid nucleation score is 8.511 ± 0.04.

Question: With YGAWRFGRLALSRRPSYCGM as the substance, how does the amyloid nucleation score read?
Answer: Its amyloid nucleation score is -0.271 ± 0.27.

Question: Which amyloid nucleation score does the source give for CCIRQCNMRIKADDQRRDVI here?
Answer: Its amyloid nucleation score is 0.109 ± 0.53.

Question: For DKFISLFKRGAHKDVQ, which amyloid nucleation score is on record?
Answer: Its amyloid nucleation score is -0.42 ± 0.76.

Question: For MMIFLGLTSFKFLMSAVNTM, which amyloid nucleation score is on record?
Answer: Its amyloid nucleation score is 0.628 ± 0.38.

Question: For SVLTCKLK, which amyloid nucleation score is on record?
Answer: Its amyloid nucleation score is “inactive”.

Question: Which amyloid nucleation score does the source give for CWVRISDLCLYKFVGVPMSV here?
Answer: Its amyloid nucleation score is 0.312 ± 0.8.

Question: Which amyloid nucleation score does the source give for GYFKRHLRM here?
Answer: Its amyloid nucleation score is -0.619 ± 1.

Question: For TLHNYCYPMIRSCGQSPGRF, which amyloid nucleation score is on record?
Answer: The amyloid nucleation score was 0.208 ± 1.1.

Question: With YLWWMKSNY as the substance, how does the amyloid nucleation score read?
Answer: The amyloid nucleation score was “inactive”.

Question: With DLGIYSLTNFKMLPST as the substance, how does the amyloid nucleation score read?
Answer: The amyloid nucleation score was 0.544 ± 0.52.

Question: With KWDHPKEVFCSVRTSGRGVE as the substance, how does the amyloid nucleation score read?
Answer: The amyloid nucleation score was 2.04 ± 0.072.

Question: With NILLMYFSLK as the substance, how does the amyloid nucleation score read?
Answer: Its amyloid nucleation score is 5.74 ± 0.049.

Question: Which amyloid nucleation score does the source give for SFYDARYFQCDVFAVVRIRR here?
Answer: The amyloid nucleation score was 0.853 ± 0.47.

Question: Which amyloid nucleation score does the source give for AFMSYTSSSRYPVCYLSKFH here?
Answer: The amyloid nucleation score was -0.74 ± 1.1.

Question: For NEVSGNGLFSIFSQSGKSYY, which amyloid nucleation score is on record?
Answer: The amyloid nucleation score was “inactive”.

Question: Which amyloid nucleation score does the source give for NGRRFLSYSVMLRDLRYRSC here?
Answer: The amyloid nucleation score was 0.138 ± 0.76.

Question: With RVTHAFCSSINGTNANYPRR as the substance, how does the amyloid nucleation score read?
Answer: The amyloid nucleation score was 2.54 ± 0.097.

Question: With VVYRYRVRHCL as the substance, how does the amyloid nucleation score read?
Answer: The amyloid nucleation score was 0.725 ± 0.27.

Question: For LVVKGDLFAIYVCPCLCRGS, which amyloid nucleation score is on record?
Answer: The amyloid nucleation score was 9.397 ± 0.051.

Question: With WWNITTEAPIFLIFCFTRQG as the substance, how does the amyloid nucleation score read?
Answer: The amyloid nucleation score was 4.8 ± 0.068.

Question: Which amyloid nucleation score does the source give for SIRSFSFISESNQLLEHVRK here?
Answer: Its amyloid nucleation score is 0.119 ± 0.54.

Question: For GFVQDAEYRISRSCLRCILM, which amyloid nucleation score is on record?
Answer: The amyloid nucleation score was 4.03 ± 0.089.

Question: For STNRWQHIL, which amyloid nucleation score is on record?
Answer: Its amyloid nucleation score is -0.382 ± 0.48.
